Measurements: patent US20260210971A1 (Pfizer, published 2026)

Columns and labels:
[1] = target: T1, recombinant soluble human TL1A (human, UniProt O95150 71-251); assay: plate ELISA, TL1A coated, antibody titrated; plate of Lymβ 1
T1 construct: Homotrimer, expressed in HEK293 and purified over HitrapNTA; no tag is described; Used biotinylated in the HTRF assay and in flow cytometry; also called rsTL1A; hTL1A
T1 sequence: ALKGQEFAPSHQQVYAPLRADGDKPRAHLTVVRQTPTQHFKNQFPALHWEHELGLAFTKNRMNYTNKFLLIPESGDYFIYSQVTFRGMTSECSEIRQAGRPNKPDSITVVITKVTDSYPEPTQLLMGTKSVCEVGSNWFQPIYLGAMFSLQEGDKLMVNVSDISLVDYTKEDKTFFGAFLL
Protocol: The first 6 rows of each plate were coated with the test article cytokine, and the last two rows were coated with TL1A as a positive control. Rows 1 and 2 were duplicate rows where the test article cytokine was tested for binding to increasing concentrations of its corresponding anti-cytokine positive control antibody. […] The experiment for each cytokine was repeated three times.
Plates were incubated overnight at 4° C. After washing the plates three times (3×) with 300 μL PBST using a plate washer (model ELx405; BioTek), plates were blocked by incubating for 1 hour at room temperature with 300 μL of blocking buffer (PBST+0.5% BSA) in each well. […] Plates were then washed 5 times with PBST using the plate washer.

[2] = target: T2, endogenous TL1A of stimulated human peripheral blood (human, UniProt O95150 72-251, limits assumed); assay: MSD ligand-binding assay of 1D1 1.31-free sTL1A in plasma of stimulated human blood
T2 construct: also called endogenous soluble TL1A
T2 sequence (looked up): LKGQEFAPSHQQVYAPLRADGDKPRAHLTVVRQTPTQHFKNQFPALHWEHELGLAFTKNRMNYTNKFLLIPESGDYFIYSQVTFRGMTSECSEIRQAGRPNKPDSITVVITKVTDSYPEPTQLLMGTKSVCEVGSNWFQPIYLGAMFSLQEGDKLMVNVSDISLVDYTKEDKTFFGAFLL
Protocol: After 24 hours of culture at 37° C., 100 μL of 5% bovine serum albumin in PBS were added and mixed well with the 200 μL of blood cultures to dilute plasma (dilution factor: 1.5). […] IFNγ was measured using the MSD human IFNγ kit (Catalog No. K151AEB-1) following the manufacturer's instructions. […] The following day, plates were washed three times with 150 μL per well of 0.1% Tween 20 in PBS, followed with 150 μL per well of blocking solution (5% bovine serum albumin in PBS), then the plates were incubated at room temperature for 1 hour with orbital shaking (1500 rpm). After the plates were washed as mentioned above, diluted plasma samples were added and incubated at 4° C. overnight. […] TL1A standard curves were generated using recombinant human soluble TL1A. Plates were read following the manufacturer's procedure, standard curve and plasma concentration of the cytokine were calculated with the MSD software.

B1: 1D1 1.31 (antibody, human IgG1, kappa, V domains shown)
VH: QVQLVQSGAEVKKPGASVKVSCKASGYDFTYYGISWVRQAPGQGLEWMGWISTYNGNTHYARMLQGRVTMTTDTSTRTAYMELRSLRSDDTAVYYCARENYYGSGAYRGGMDVWGQGTTVTVSS
VL: EIVLTQSPATLSLSPGERATLSCRASQSVSSYLAWYQQKPGQAPRLLIYDASNRATGIPARFSGSGSGTDFTLTISSLEPEDFAVYYCQQRSNWPWTFGQGTKVEIKR
notes: Full length human IgG1 with effector function-null mutations in the Fc, produced in CHO cells; Used biotinylated for staining of monocytes
[1]
  EC50: 0.0063 ng/mL
[2]
  IC50: 1.06 pM
